Test results reported in patent publication US20120316071A1 (published 2012).
Changes are numbered by the printed parent chain. Names may count otherwise.

B1: Fab VH1-46_IGHD6-6*01_IGHJ1*01 S102A/S103P/S104F/H111F S54T & L6_IGKJ1*01 (Fab, V domains shown)
VH: QVQLVQSGAEVKKPGASVKVSCKASGYTFTSYYMHWVRQAPGQGLEWMGIINPTGGSTSYAQKFQGRVTMTRDTSTSTVYMELSSLRSEDTAVYYCAREEYAPFSAEYFQFWGQGTLVTVSS
VL: not shown
notes: Fab made in E. coli; CH1 with tags and kappa CL are not included; also called APFF S54T
B2: Fab VH1-46_IGHD6-6*01_IGHJ1*01 S102A/S103P/S104F/H111F S54R & L6_IGKJ1*01 (Fab, V domains shown)
VH: B1 VH with T54R
VL: not shown
notes: Fab made in E. coli; CH1 with tags and kappa CL are not included; also called APFF S54R
B3: Fab VH1-46_IGHD6-6*01_IGHJ1*01 S102A/S103P/S104F/H111F S54V & L6_IGKJ1*01 (Fab, V domains shown)
VH: B1 VH with T54V
VL: not shown
notes: Fab made in E. coli; CH1 with tags and kappa CL are not included; also called APFF S54V
B4: Fab VH1-46_IGHD6-6*01_IGHJ1*01 S102A/S103P/S104F/H111F S54L & L6_IGKJ1*01 (Fab, V domains shown)
VH: B1 VH with T54L
VL: not shown
notes: Fab made in E. coli; CH1 with tags and kappa CL are not included; also called APFF S54L
B5: Fab VH1-46_IGHD6-6*01_IGHJ1*01 S102A/S103P/S104F/H111F S54P & L6_IGKJ1*01 (Fab, V domains shown)
VH: B1 VH with T54P
VL: not shown
notes: Fab made in E. coli; CH1 with tags and kappa CL are not included; also called APFF S54P
B6: Fab VH1-46_IGHD6-6*01_IGHJ1*01 S102A/S103P/S104F/H111F S54G & L6_IGKJ1*01 (Fab, V domains shown)
VH: B1 VH with T54G
VL: not shown
notes: Fab made in E. coli; CH1 with tags and kappa CL are not included; also called APFF S54G
B7: Fab VH1-46_IGHD6-6*01_IGHJ1*01 S102A/S103P/S104F/H111F S54A/S59N & L6_IGKJ1*01 (Fab, V domains shown)
VH: B1 VH with T54A, S59N
VL: not shown
notes: Fab made in E. coli; CH1 with tags and kappa CL are not included; also called APFF S54A/S59N
B8: Fab VH1-46_IGHD6-6*01_IGHJ1*01 S102A/S103P/S104F/H111F S54N & L6_IGKJ1*01 (Fab, V domains shown)
VH: B1 VH with T54N
VL: not shown
notes: Fab made in E. coli; CH1 with tags and kappa CL are not included; also called APFF S54N
B9: Fab VH1-46_IGHD6-6*01_IGHJ1*01 S102A/S103P/S104F/H111F S54E & L6_IGKJ1*01 (Fab, V domains shown)
VH: B1 VH with T54E
VL: not shown
notes: Fab made in E. coli; CH1 with tags and kappa CL are not included; also called APFF S54E
B10: Fab VH1-46_IGHD6-6*01_IGHJ1*01 S102A/S103P/S104F/H111F S54Q & L6_IGKJ1*01 (Fab, V domains shown)
VH: B1 VH with T54Q
VL: not shown
notes: Fab made in E. coli; also called APFF S54Q

molecular target: T1, Recombinant Human DLL4 (delta-like protein 4) (human, UniProt Q9NR61 27-529); experiment: ELISA on coated DLL4, 100 nM Fab
T1 construct: Bought recombinant human DLL4 (R&D Systems Cat#1506-D4/CF), coated on the plate; also called rHuman DLL4; Delta-like 4

Binder	ELISA signal
B1	0.08
B2	0.02
B3	0
B4	0.02
B5	0
B6	0.06
B7	0.1
B8	0.02
B9	0.04
B10	0.07

molecular target: T1, Recombinant Human DLL4 (delta-like …); experiment: 96-well plate ECL (MSD) binding assay on coated DLL4, 10 nM Fab

Binder	ECL signal
B1	57200
B2	26300
B3	22200
B4	28200
B5	10100
B6	47000
B7	17300
B8	31700
B9	36800
B10	41800
